From patent US20190185575A1 (ONCOTHERAPY SCIENCE, published 2019)

Target: T1, human MELK protein (Maternal Embryonic Leucine zipper Kinase), full-length (human, UniProt Q14680 1-651)
T1 construct: It was detected in formalin-fixed paraffin sections (IHC) or in RIPA lysates after SDS-PAGE (western blot); MELK is an intracellular kinase, so 'on cells' here means in cells or sections; also called full-length MELK protein; endogenous MELK protein
Assay: immunohistochemical staining of formalin-fixed paraffin sections, MELK/293T vs Mock/293T
Description: For antigen activation, sections immersed in the antigen-activating solution, pH 9 (Nichirei Biosciences Inc.) were incubated at 125° C. for 30 seconds. After incubation, these were left to stand for 20 minutes at room temperature, and washed for 5 minutes under running water. After immersing them in 3.0% hydrogen peroxide water for 10 minutes to perform blocking of endogenous peroxidase, they were washed with Wash Buffer (TBS-T (Takara Bio)) three times for 5 minutes. Furthermore, with the aim of blocking non-specific reactions, a suitable amount of Protein Block Solution (Dako) was dropped onto the sections and then left to stand for 10 minutes. The primary antibodies (OTSMAb01, MELK(N449)pAb, MELK(HPA017214)pAb) were respectively dropped in suitable amounts within a humid box, left to stand for 60 minutes, and then washed with the Wash Buffer three times for 5 minutes. Histofine Simple Stain MAX PO (Nichirei Biosciences Inc.) was dropped in suitable amounts as the secondary antibody in a humid box, and left to stand for 30 minutes. These were then washed with the Wash Buffer three times for 5 minutes. The chromogenic reaction was done using the DAB substrate solution (Nichirei Biosciences Inc.). The slide sections were immersed for 20 seconds in haematoxylin (Dako), and washed under running water. […]

T1 sequence (Q14680 whole entry): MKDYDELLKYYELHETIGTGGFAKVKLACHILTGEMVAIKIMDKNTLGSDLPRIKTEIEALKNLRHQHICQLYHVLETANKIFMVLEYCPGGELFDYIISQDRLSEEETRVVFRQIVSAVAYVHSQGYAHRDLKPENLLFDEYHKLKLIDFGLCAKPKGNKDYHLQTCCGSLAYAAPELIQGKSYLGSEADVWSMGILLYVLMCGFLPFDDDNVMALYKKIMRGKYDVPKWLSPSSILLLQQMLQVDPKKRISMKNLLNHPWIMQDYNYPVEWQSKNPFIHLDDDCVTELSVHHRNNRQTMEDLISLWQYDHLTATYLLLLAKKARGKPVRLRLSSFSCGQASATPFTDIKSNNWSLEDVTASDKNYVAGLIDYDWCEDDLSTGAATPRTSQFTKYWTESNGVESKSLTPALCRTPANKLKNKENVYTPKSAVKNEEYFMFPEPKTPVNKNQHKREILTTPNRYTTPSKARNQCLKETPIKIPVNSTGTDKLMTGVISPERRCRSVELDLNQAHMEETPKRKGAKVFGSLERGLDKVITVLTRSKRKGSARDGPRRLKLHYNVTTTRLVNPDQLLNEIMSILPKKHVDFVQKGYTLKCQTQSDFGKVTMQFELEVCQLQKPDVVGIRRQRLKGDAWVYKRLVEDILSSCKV

binding result: binds
B1: anti-MELK mouse monoclonal antibody clone OTSMAb01 (antibody, V domains shown)
VH: EVQLQQSGAELVRPGALVKLSCKASGFNIKDYYMHWVKQRPEQGLEWIGWIDPENGNTIYDPKFQGKASVTADTSSNTAYLQLSSLTSEDTAVYYCTSHHYSAMDYWGQGTSVTVSS
VL: DVVMTQTPLSLPVSLRDQASISCRSSQSLVHSNGNTYLHWYLQKPGQSPKLLIYKVSNRFSGVPDRFSGSGSGTDFTLIISRVEAEDLGVYFCSQSTYVPLTFGAGTKLELKR
notes: Mouse monoclonal antibody from a hybridoma (Balb/c splenocytes x SP2/0), purified from culture solution on a Protein A column; also called anti-MELK antibody (OTSMAb01); hybridoma clone OTSMAb01
